Test results published in the supplement of paper PMC5998384.

Experiments:
HeLa Kyoto [1] = test: solubility change mitosis vs G1/S (difference of NP-40 vs SDS log2 ratios) (log2 ratio difference); higher = more soluble in mitosis
HeLa Kyoto [2] = test: solubility in G1/S (NP-40 vs SDS abundance) (log2 ratio); higher = more soluble; details: cell cycle stage: G1/S
HeLa Kyoto [3] = test: melting temperature (median over replicates), in situ; higher = more thermally stable
HeLa Kyoto [4] = test: thermal stability score vs G1/S (z-score of summed log2 fold changes over temperatures); higher = more thermally stable than in G1/S
[5] = cell cycle stage: early G1 (4.5 h after nocodazole release)
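For melting temperature (median over replicates), in situ in this document: HeLa Kyoto cells synchronized by double thymidine or nocodazole block, proteins quantified by TMT10plex mass spectrometry, three independent biological replicates.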
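For solubility change mitosis vs G1/S (difference of NP-40 vs SDS log2 ratios) in this document: synchronized HeLa Kyoto cells (double thymidine block for G1/S, nocodazole release for mitosis), protein amounts in NP-40 versus SDS lysates quantified by mass spectrometry, three biological replicates.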
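For solubility in G1/S (NP-40 vs SDS abundance) in this document: HeLa Kyoto cells arrested at G1/S by double thymidine block, proteins quantified by TMT10plex mass spectrometry in mild NP-40 versus SDS extracts, three biological replicates.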
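For thermal stability score vs G1/S (z-score of summed log2 fold changes over temperatures) in this document: synchronized HeLa Kyoto cells, proteins quantified by TMT10plex mass spectrometry, three biological replicates, mitosis taken 0.5 h after nocodazole release, G1/S directly after double thymidine block.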

## MATAATSPALKRLDLRDPAALFETHGAEEIRGLERQVRAEIEHKKEELRQMVGERYRDLIEAADTIGQMRRCAVGLVDAVKATDQYCARLRQAGSAAPRPPRAQQPQQPSQEKFYSMAAQIKLLLEIPEKIWSSMEASQCLHATQLYLLCCHLHSLLQLDSSSSRYSPVLSRFPILIRQVAAASHFRSTILHESKMLLKCQGVSDQAVAEALCSIMLLEESSPRQALTDFLLARKATIQKLLNQPHHGAGIKAQICSLVELLATTLKQAHALFYTLPEGLLPDPALPCGLLFSTLETITGQHPAGKGTGVLQEEMKLCSWFKHLPASIVEFQPTLRTLAHPISQEYLKDTLQKWIHMCNEDIKNGITNLLMYVKSMKGLAGIRDAMWELLTNESTNHSWDVLCRRLLEKPLLFWEDMMQQLFLDRLQTLTKEGFDSISSSSKELLVSALQELESSTSNSPSNKHIHFEYNMSLFLWSESPNDLPSDAAWVSVANRGQFASSGLSMKAQAISPCVQNFCSALDSKLKVKLDDLLAYLPSDDSSLPKDVSPTQAKSSAFDRYADAGTVQEMLRTQSVACIKHIVDCIRAELQSIEEGVQGQQDALNSAKLHSVLFMARLCQSLGELCPHLKQCILGKSESSEKPAREFRALRKQGKVKTQEIIPTQAKWQEVKEVLLQQSVMGYQVWSSAVVKVLIHGFTQSLLLDDAGSVLATATSWDELEIQEEAESGSSVTSKIRLPAQPSWYVQSFLFSLCQEINRVGGHALPKVTLQEMLKSCMVQVVAAYEKLSEEKQIKKEGAFPVTQNRALQLLYDLRYLNIVLTAKGDEVKSGRSKPDSRIEKVTDHLEALIDPFDLDVFTPHLNSNLHRLVQRTSVLFGLVTGTENQLAPRSSTFNSQEPHNILPLASSQIRFGLLPLSMTSTRKAKSTRNIETKAQVVPPARSTAGDPTVPGSLFRQLVSEEDNTSAPSLFKLGWLSSMTK [COG1]
HeLa Kyoto [1]
  solubility change mitosis (log2): 0.0588
HeLa Kyoto [2]
  solubility in G1/S (log2): -0.122
HeLa Kyoto [3]; cell cycle stage: G1/S
  melting temperature: 49.8 °C
HeLa Kyoto [3]; cell cycle stage: mitosis
  melting temperature: 49.4 °C
HeLa Kyoto [4]; [5]
  thermal stability score: -0.0852
HeLa Kyoto [4]; cell cycle stage: mitosis
  thermal stability score: 0.918

## MKRQGASSERKRARIPSGKAGAANGFLMEVCVDSVESAVNAERGGADRIELCSGLSEGGTTPSMGVLQVVKQSVQIPVFVMIRPRGGDFLYSDREIEVMKADIRLAKLYGADGLVFGALTEDGHIDKELCMSLMAICRPLPVTFHRAFDMVHDPMAALETLLTLGFERVLTSGCDSSALEGLPLIKRLIEQAKGRIVVMPGGGITDRNLQRILEGSGATEFHCSARSTRDSGMKFRNSSVAMGASLSCSEYSLKVTDVTKVRTLNAIAKNILV [CUTC]
HeLa Kyoto [1]
  solubility change mitosis (log2): -0.0574
HeLa Kyoto [2]
  solubility in G1/S (log2): -0.00165
HeLa Kyoto [3]; cell cycle stage: G1/S
  melting temperature: 54.4 °C
HeLa Kyoto [3]; cell cycle stage: mitosis
  melting temperature: 54.1 °C
HeLa Kyoto [4]; [5]
  thermal stability score: -0.146
HeLa Kyoto [4]; cell cycle stage: mitosis
  thermal stability score: -0.357

## MLCSLLLCECLLLVAGYAHDDDWIDPTDMLNYDAASGTMRKSQAKYGISGEKDVSPDLSCADEISECYHKLDSLTYKIDECEKKKREDYESQSNPVFRRYLNKILIEAGKLGLPDENKGDMHYDAEIILKRETLLEIQKFLNGEDWKPGALDDALSDILINFKFHDFETWKWRFEDSFGVDPYNVLMVLLCLLCIVVLVATELWTYVRWYTQLRRVLIISFLFSLGWNWMYLYKLAFAQHQAEVAKMEPLNNVCAKKMDWTGSIWEWFRSSWTYKDDPCQKYYELLLVNPIWLVPPTKALAVTFTTFVTEPLKHIGKGTGEFIKALMKEIPALLHLPVLIIMALAILSFCYGAGKSVHVLRHIGGPESEPPQALRPRDRRRQEEIDYRPDGGAGDADFHYRGQMGPTEQGPYAKTYEGRREILRERDVDLRFQTGNKSPEVLRAFDVPDAEAREHPTVVPSHKSPVLDTKPKETGGILGEGTPKESSTESSQSAKPVSGQDTSGNTEGSPAAEKAQLKSEAAGSPDQGSTYSPARGVAGPRGQDPVSSPCG [CLCC1]
HeLa Kyoto [1]
  solubility change mitosis (log2): -0.123
HeLa Kyoto [2]
  solubility in G1/S (log2): -0.212
HeLa Kyoto [3]; cell cycle stage: G1/S
  melting temperature: 56 °C
HeLa Kyoto [3]; cell cycle stage: mitosis
  melting temperature: 58.6 °C
HeLa Kyoto [4]; [5]
  thermal stability score: -0.638
HeLa Kyoto [4]; cell cycle stage: mitosis
  thermal stability score: 1.19

## MSGAEEAGGGGPAAGPAGSVPAGVGVGVGAGPGAAAGQAAAAALGEAAGPGLPDEAGLAGARQLQLQEAAGDPDAPPKKRLRAAEAAEAAAAAAAAGSGKLEERLYSVLCCTVCLDLPKASVYQCTNGHLMCAGCFIHLLADARLKEEQATCPNCRCEISKSLCCRNLAVEKAVSELPSECGFCLRQFPRSLLERHQKEECQDRVTQCKYKRIGCPWHGPFHELTVHEAACAHPTKTGSELMEILDGMDQSHRKEMQLYNSIFSLLSFEKIGYTEVQFRPYRTDDFITRLYYETPRFTVLNQTWVLKARVNDSERNPNLSCKRTLSFQLLLKSKVTAPLECSFLLLKGPYDDVRISPVIYHFVFTNESNETDYVPLPIIDSVECNKLLAAKNINLRLFLFQIQK [CYHR1]
HeLa Kyoto [1]
  solubility change mitosis (log2): -0.0838
HeLa Kyoto [2]
  solubility in G1/S (log2): 0.166
HeLa Kyoto [3]; cell cycle stage: G1/S
  melting temperature: 54 °C
HeLa Kyoto [3]; cell cycle stage: mitosis
  melting temperature: 55 °C
HeLa Kyoto [4]; [5]
  thermal stability score: -1.75
HeLa Kyoto [4]; cell cycle stage: mitosis
  thermal stability score: -2.18

## MAAAPPLSKAEYLKRYLSGADAGVDRGSESGRKRRKKRPKPGGAGGKGMRIVDDDVSWTAISTTKLEKEEEEDDGDLPVVAEFVDERPEEVKQMEAFRSSAKWKLLGGHNEDLPSNRHFRHDTPDSSPRRVRHGTPDPSPRKDRHDTPDPSPRRARHDTPDPSPLRGARHDSDTSPPRRIRHDSSDTSPPRRARHDSPDPSPPRRPQHNSSGASPRRVRHDSPDPSPPRRARHGSSDISSPRRVHNNSPDTSRRTLGSSDTQQLRRARHDSPDLAPNVTYSLPRTKSGKAPERASSKTSPHWKESGASHLSFPKNSKYEYDPDISPPRKKQAKSHFGDKKQLDSKGDCQKATDSDLSSPRHKQSPGHQDSDSDLSPPRNRPRHRSSDSDLSPPRRRQRTKSSDSDLSPPRRSQPPGKKAAHMYSGAKTGLVLTDIQREQQELKEQDQETMAFEAEFQYAETVFRDKSGRKRNLKLERLEQRRKAEKDSERDELYAQWGKGLAQSRQQQQNVEDAMKEMQKPLARYIDDEDLDRMLREQEREGDPMANFIKKNKAKENKNKKVRPRYSGPAPPPNRFNIWPGYRWDGVDRSNGFEQKRFARLASKKAVEELAYKWSVEDM [BUD13]
HeLa Kyoto [1]
  solubility change mitosis (log2): 0.878
HeLa Kyoto [2]
  solubility in G1/S (log2): -0.884
HeLa Kyoto [3]; cell cycle stage: G1/S
  melting temperature: 52.9 °C
HeLa Kyoto [3]; cell cycle stage: mitosis
  melting temperature: 53 °C
HeLa Kyoto [4]; [5]
  thermal stability score: 0.0865
HeLa Kyoto [4]; cell cycle stage: mitosis
  thermal stability score: -0.687
